9 molecules from patent US20210072252A1 (WASHINGTON UNIVERSITY, published 2021) can be followed below.

Assay [1] deals with peptide with N-terminal methionine (biolayer interferometry). Briefly: biolayer interferometry (Blitz), peptide-coated sensor, NAAB in 1x PBS, 1:1 fit, kd/ka. A general note: BLI is a label-free optical method that tracks binding on a fibre tip over time.
The target of assay [2] is peptide with N-terminal threonine. The description is as above.
For assay [3], the target named is peptide with N-terminal arginine. Described as above.
Assay [4] addresses peptide with N-terminal asparagine. The description is as above.
For assay [5], the target named is peptide with N-terminal glutamate. The assay is described as above.
For assay [6], the target named is peptide with N-terminal glutamine. Described as above.
Assay [7] addresses peptide with N-terminal isoleucine. The description is as above.
Assay [8] addresses peptide with N-terminal serine. The assay is described as above.
Assay [9] deals with synthetic peptide with N-terminal leucine (Example 1, on nanogel surface). Briefly: single-molecule detection, TIRF microscopy; Cy5-labeled NAAB on peptide immobilized on nanogel; counts per field of view.
Procedure: The NAAB for N-terminal leucine amino acids was non-specifically labeled with Cy5 fluorophore on lysine side chains. […] An additional experiment was performed with no peptide added. The labeled NAAB was briefly incubated with the immobilized peptide, and unbound protein was removed by washing. Bound protein, which may be bound specifically to peptides or non-specifically to the surface, was imaged by total internal reflection fluorescence (TIRF) microscopy. Spots exceeding a detection threshold were deemed to indicate bound protein and were converted to a number of counts per field-of-view.

B1: Met NAAB (as used in biolayer interferometry) (designed binder)
chain: AKKILVTCASPYANGSIHLGHMLEHIQADVWVRYQRMRGHEVNFICADDAHGTPIMLKAQQLGITPEQMIGEMSQEHQTDFAGFNISYDNYHSTHSEENRQLSELIYSRLKENGFIKNRTISQLYDPEKGMFLPDRFVKGTCPKCKSPDQYGDNCEVCGATYSPTELIEPKSVVSGATPVMRDSEHFFFDLPSFSEMLQAWTRSGALQEQVANKMQEWFESGLQQWDISRDAPYFGFEIPNAPGKYFYVWLDAPIGLMGSFKNLCDKRGDSVSFDEYWKKDSTAELYHFIGKGIVYFLSLFWPAMLEGSNFRKPSNLFVHGYVTVNGAKMSKSRGTFIKASTWLNHFDADSLRYYYTAKLSSRIDDIDLNLEDFVQRVNADIVNKVVNLASRNAGFINKRFDGVLASELADPQLYKTFTDAAEVIGEAWESREFGKAVREIMALADLANRYVDEQAPWVVAKQEGRDADLQAICSMGINLFRVLMTYLKPVLPKLTERAEAFLNTELTWDGIQQPLLGHKVNPFKALYNRIDMRQVEALVEASK
notes: Same engineered MetRS fragment as m5, here without stated Cy5 label; also called Methionine
One may read the Kd as the free concentration of one partner at which half of the binding sites on the other are occupied at equilibrium, for simple one-to-one binding. Read a high Kd as lower affinity. On to B1, for which, in [1], binding was put at a Kd of 1070 nM.

B2: ThreNAAB (enzyme)
chain: RDHRKIGKQLDLYHMQEEAPGMVFWHNDGWTIFRELEVFVRSKLKEYQYQEVKGPFMMDRVLWEKTGHWDNYKDAMFTTSSENREYCIKPMNCPGHVQIFNQGLKSYRDLPLRMAEFGSCHRNEPSGSLHGLGRVRGFTQDDAHIFCTEEQIRDEVNGCIRLVYDMYSTFGFEKIVVKLSTRPEKRIGSDEMWDRAEADLAVALEENNIPFEYQLGEGAFYGPKIEFTLYDCLDRAAQCGTVQLDFSLPSRLSASYVGEDNERKVPVMIHRAILGSMEVFIGILTEEFAGFFPTWLAPVQVVIMNITDSQSEYVNELTQKLSNAGIRVKADLRNEKIGFKIREHTLRRVPYMLVCGDKEVESGKVAVRTRRGKDLGSMDVNEVIEKLQQEIRSRSLKQLEE
notes: Purified on GSTrap; also called Threonine
B2 registered a Kd in assay [2] of 1010 nM.

B3: ArgNAAB (enzyme)
chain: EKQTIVVDYSAPNVAKEMHVGHLRSTIIGDAAVRTLEFLGHKVIRANHVGDWGTQFGMLIAWLEKQQQENAGEMELADLEGFYRDAKKHYDEDEEFAERARNYVVKLQSGDEYFREMWRKLVDITMTQNQITYDRLNVTLTRDDVMGESLYNPMLPGIVADLKAKGLAVESEGATVVFLDEFKNKEGEPMGVIIQKKDGGYLYTTTDIACAKYRYESLHADRVLYYIDSRQHQHLMQAWAIVRKAGYVPESVPLEHHMFGMMLGKDGKPFKTRAGGTVKLADLLDETLERARRLVAEKNPDMPADELEKLANAVGIGAVKYADLSKNRTTDYIFDWDNMLAFEGNTAPYMQYAYTRVLSVFRKAEINEEQLAAAPVIIREDREAQLAARLLQFEETLTVVAREGTPHVMCAYLYDLAGLFSGFYEHCPILSAENEEVRNSRLKLAQLTAKTLKLGLDTLGIETVERM
notes: Purified on GSTrap; also called Arginine
For B3, the dissociation constant Kd in assay [3] was 129 nM.

B4: AsnNAAB (enzyme)
chain: SIEYLREVAHLRPRTNLIGAVARVRHTLAQALHRFFNEQGFFWVSTPLITASDTEGAGEMFRVSTLDLENLPRNDQGKVDFDKDFFGKESFLTVSGQLNGETYACALSKIYTFGPTFRAENSNTSRHLAEFWMLEPEVAFANLNDIAGLAEAMLKYVFKAVLEERADDMKFFAERVDKDAVSRLERFIEADFAQVDYTDAVTILENCGRKFENPVYWGVDLSSEHERYLAEEHFKAPVVVKNYPKDIKAFYMRLNEDGKTVAAMDVLAPGIGEIIGGSQREERLDVLDERMLEMGLNKEDYWWYRDLRRYGTVPHSGFGLGFERLIAYVTGVQNVRDVIPFPRTP
notes: Purified on GSTrap; also called Asparagine
With B4, in assay [4], the Kd was 754 nM.

B5: GluNAAB (enzyme)
chain: IKTRFAPSPTGYLHVGGARTALYSWLFARNHGGEFVLRIEDTDLERSTPEAIEAIMDGMNWLSLEWDEGPYYQTKRFDRYNAVIDQMLEEGTAYKCYCSKERLEALREEQMAKGEKPRYDGRCRHSHEHHADDEPCVVRFANPQEGSVVFDDQIRGPIEFSNQELDDLIIRRTDGSPTYNFCVVVDDWDMEITHVIRGEDHINNTPRQINILKALNAPVPVYAHVSMINGDDGKKLSKRHGAVSVMQYRDDGYLPEALLNYLVRLGWSHGDQEIFTREEMIKYFTLNAVSKSASAFNTDKLLWLNHHYI
notes: also called Glutamate
B5: binding in assay [5] was put at a Kd of 2120 nM. This counts as single-digit micromolar.

B6: GlnNAAB (enzyme)
chain: TNFIRQIIDEDLASGKHTTVHTRFPPEPNGYLHIGHAKSICLNFGIAQDYKGQCNLRFDDTNPVKEDIEYVESIKNDVEWLGFHWSGNVRYSSDYFDQLHAYAIELINKGLAYVDELTPEQIREYRGTLTQPGKNSPYRDRSVEENLALFEKMRTGGFEEGKACLRAKIDMASPFIVMRDPVLYRIKFAEHHQTGNKWCIYPMYDFTHCISDALEGITHSLCTLEFQDNRRLYDWVLDNITIPVHPRQYEFSR
notes: Purified on GSTrap; also called Glutamine
The molecule B6 registered a Kd in assay [6] of 531 nM. This lies in the sub-micromolar range.

B7: IleNAAB (enzyme)
chain: FPMRGDLAKREPGMLARWTDDDLYGIIRAAKKGKKTFILHDGPPYANGSIHIGHSVNKILKDIIIKSKGLSGYDSPYVPGWDCHGLPIELKVEQEYGKPGEKFTAAEFRAKCREYAATQVDGQRKDFIRLGVLGDWSHPYLTMDFKTEANIIRALGKIIGNGHLHKGAKPVHWCVDCRSALAEAEVEYYDKTSPSIVAFQAVDQDALKTKFGVSNVNGPISLVIWTTTPWTLPANRAISIAPDFDYALVQIDGQAVILAKDLVESMQRIGVSDYTILGTVKGAELELLRFTHPFMDFDVPAILGDHVTLDAGTGAVHTAPGHGPDDYVIGQKYGLETANPVGPDGTYLPGTYPTLDGVNVFKANDIVVALLQEKGALLHVEKMQHSYPCCWRHKTPIIFRATPQWFVSMDQKGLRAQSLKEIKGVQWIPDWGQARIESMVANRPDWCISRQRTWGVPMSLFVHKDTEELHPRTLELMEEVAKRVEVDGIQAWWDLDAKEILGDEADQYVKVPDTLDVWFDSGSTHSSVVDVRPEFAGHAADMYLEGSDQHRGWFMSSLMISTAMKGKAPYRQVLTHGFTVDGQGRKMSKSIGNTVSPQDVMNKLGADILRLWVASTDYTGEMAVSDEILKRAADSYRRIRNTARFLLANLNGFDPAKDMVKPEEMVVLDRWAVGCAKAAQEDILKAYEAYDFHEVVQRLMRFCSVEMGSFYLDIIKDRQYTAKADSVARRSCQTALYHIAEALVRWMAPILSFTADEVWGYLPGERE
notes: Purified on GSTrap; also called Isoleucine
For B7, binding in [7] was characterised by a dissociation constant (Kd) of 3010 nM.

B8: SerNAAB (enzyme)
chain: MLDPNLLRNEPDAVAEKLARRGFKLDVDKLGALEERRKVLQVKTENLQAERNSRSKSIGQAKARGEDIEPLRLEVNKLGEELDAAKAELDALQAEIRDIALTIPNLPADEVPVGKDENDNVEVSRWGTPREFDFEVRDHVTLGEMYSGLDFAAAVKLTGSRFVVMKGQIARMHRALSQFMLDLHTEQHGYSENYVPYLVNQDTLYGTGQLPKFAGDLFHTRPLEEEADTSNYALIPTAEVPLTNLVRGEIIDEDDLPIKMTAHTPCFRSEAGSYGRDTRGLIRMHQFDKVEMVQIVRPEDSMAALEEMTGHAEKVLQLLGLPYRKIILCTGDMGFGACKTYDLEVWIPAQNTYREISSCSNVWDFQARRMQARCRSKSDKKTRLVHTLNGSGLAVGRTLVAVMENYQQADGRIEVPEVLRPYMNGLEYI
notes: Purified on GSTrap; also called Serine
In assay [8], B8 registered a Kd of 938 nM. That is a sub-micromolar value.

B9: eLAP, engineered leucine-specific aminopeptidase (NAAB for N-terminal leucine) (designed binder)
chain: MAISIKTPEDIEKMRVAGRLAAEVLEMIEPYVKPGVSTGELERICWDYIVNEQHATDSLTGHNGIDGHGSISINEVVCHGVPDDAKLLKDGDIVNIDVTVRKDGFHGDTSKMFIVGKPTIMGERLCRITQESLYLALRMVKPGINLREIGAAIQKFVEAEGFSVVREYCGHGIGRGHHEEPQVLHYDSRETNVVLKPGMTFTIEPMVNAGKKEIRTMKDGSTVKTKDRSLSAQYEHTIVVTDNGCEILTLRKDDTIPAIISHDE
modifications: Cy5 fluorophore non-specifically on lysine side chains
notes: also called NAAB for leucine
Consider B9, for which the “ratio of specific to non-specific binding” value in [9] is roughly 2 to 1.
